Test results reported in US10704064B2, “Recombinant yeast producing 3-hydroxypropionic acid and method for producing 3-hydroxypropionic acid using the same” (SK Innovation Co., Ltd., priority 2014, dated 2020).

Columns and labels:
[1] = test system: MCR; test: archaeal MCR activity assay in E. coli lysates (microtitre plate); format: biochemical; conditions: E. coli cell lysate, NADPH or NADH
Experimental: (§1) pBAT T7 promoter based expression constructs were made for four different archaeal MCRs, Metallosphaera sedula (MCRms), Sulfolobus tokodai (MCRst), Candidatus caldiarchaeum (MCRcc), and Sulfolobales archaeon (MCRsa1).
Their activity was analyzed using the following assay conditions: 0.4 mM NAD(P)H; 0.15 mM Malonyl-CoA; Tris-HCl pH 7; 2 mM MgCl2. Assays on 20 times diluted lysates were performed in microtitre plate (MTP) format at RT. The oxidation of NADPHT or NADHT at A^365 in time was followed. […] However, the MCR activities were smaller than that measured for the tagged MCRca.

[2] = SDS-PAGE expression levels of MCR constructs in E. coli lysate
Excerpt: as §1

[3] = test system: MCR; test: MCR enzyme assay from yeast cell lysates; format: biochemical; conditions: NADPH as a cofactor
Experimental: The MCR enzyme activity was measured according to the method described by Chen et al. (2014, Metab. Eng. 22:104-109) with slight modifications. The method is based on monitoring the oxidation of NAD(P)H at 340 nm.
Cells were collected and washed with cold wash buffer containing 20 mM Tris-HCl (pH 7.5), 20 mM NaN3 and then resuspended in 1 mL of breaking buffer containing 50 mM HEPES (pH 7.5), 150 mM KCl, 1 mM DTT, 1 mM EDTA, 0.5% Triton X-100 and 1×EDTA free protease inhibitor cocktail (Roche). The cells were lysed with glass beads in a Precellys 24 homogenizer at 5500 rpm for 3×40 seconds and kept on ice between rounds. Lysates were centrifuged at 16 000 g for 20 min at 4° C. and supernatants were collected. The total protein concentration was determined using the Bradford method.
The MCR assay mixture contained 50 mM Tris-HCl buffer (pH 8.0), 5 mM MgCl2 and 0.3 mM NADPH or NADH. After adding 20 μL of cell lysate into a total reaction volume of 200 μL, the reaction was pre-incubated for five minutes at 30° C. after which the reaction was started by addition of 0.15 mM malonyl-CoA. The assay was monitored at 340 nm with a Thermo Konelab 20XT analyser.
The eight full-length Chloroflexus MCR homologues were truncated into their two functional domains and the MCR-specific domains were assayed for enzyme activity in yeast along with the six archaeal MCRs. […]

B1: MCRsa1: archaeal malonyl-CoA reductase of Sulfolobales archaeon Acd1, WP_020198954.1 (protein)
chain: MRRTLKAAILGATGLVGIEYVRMLSQHPYIKPAYLAGKGSVGKAYSEVVRWQTVGQVPKEVADMPVLPTDVNEIKKAGVDIVFSPLPQGAAGPVEEEFAKAGFPVISNSPDHRFDPDVPLMIPEVNGHTASLIDEQKKRRDWSGFIVTTPLCTAQGIAIPLAPIYRDFRVDSVFITTMQSLSGEGYPGVASLDVVDNIKVLGDAYDAKTVKEVTRILSEVKRNVPGTMDELTLSATTHRIATIHGHYEVMYVTFKEDVKVEKVKETLANFKGEPQDMKLPTAPSRPILITELDNRPQPYFDRWAGDVPGMSVVVGRLKQVNNRTVRLVSLIHNTVRGAAGGGILVAEYLIEKGYIPK
modifications: Sulfolobales archaeon
[1]
  MCR activity: showed the highest MCR activity
[2]
  expression level: highest expression levels
[3]
  MCR enzyme activity compared to the wild-type strain: higher than the wild-type strain
